Measured values: paper PMC4928909, “Roles of C-Terminal Region of Yeast and Human Rad52 in Rad51-Nucleoprotein Filament Formation and ssDNA Annealing”

Experiments:
Assay in all cases: EMSA; 3 mM Mg acetate; 30 mM Tris-acetate pH 7.5, 3 mM Mg acetate, 20 mM NaCl, 37 C, 15 min, 100 nM labeled ssDNA; 6% PAGE in TBE
hRAD52 = molecular target: T1, hRAD52 (Homo sapiens, UniProt P43351 1-418); conditions: protein: recombinant; tags: C-terminal His6; label: 5'-32P; single strand
T1 sequence: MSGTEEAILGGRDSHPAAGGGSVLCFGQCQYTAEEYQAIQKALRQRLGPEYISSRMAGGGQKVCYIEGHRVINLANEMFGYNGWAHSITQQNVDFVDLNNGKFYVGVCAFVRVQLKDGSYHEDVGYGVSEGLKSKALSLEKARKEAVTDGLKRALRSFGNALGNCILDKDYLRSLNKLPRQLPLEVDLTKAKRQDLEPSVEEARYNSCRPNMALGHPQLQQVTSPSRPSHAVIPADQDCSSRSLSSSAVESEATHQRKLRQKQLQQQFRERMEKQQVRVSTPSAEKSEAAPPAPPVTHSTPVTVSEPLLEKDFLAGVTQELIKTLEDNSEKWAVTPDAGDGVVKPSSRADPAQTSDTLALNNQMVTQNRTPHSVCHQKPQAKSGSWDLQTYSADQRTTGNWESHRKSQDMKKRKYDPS

yRad52 = yRad52 (Saccharomyces cerevisiae, UniProt P06778 1-471); conditions: protein: recombinant; tags: C-terminal His6; chain copies: 10; label: 5'-32P; single strand
Chain of yRad52 (P06778 whole entry): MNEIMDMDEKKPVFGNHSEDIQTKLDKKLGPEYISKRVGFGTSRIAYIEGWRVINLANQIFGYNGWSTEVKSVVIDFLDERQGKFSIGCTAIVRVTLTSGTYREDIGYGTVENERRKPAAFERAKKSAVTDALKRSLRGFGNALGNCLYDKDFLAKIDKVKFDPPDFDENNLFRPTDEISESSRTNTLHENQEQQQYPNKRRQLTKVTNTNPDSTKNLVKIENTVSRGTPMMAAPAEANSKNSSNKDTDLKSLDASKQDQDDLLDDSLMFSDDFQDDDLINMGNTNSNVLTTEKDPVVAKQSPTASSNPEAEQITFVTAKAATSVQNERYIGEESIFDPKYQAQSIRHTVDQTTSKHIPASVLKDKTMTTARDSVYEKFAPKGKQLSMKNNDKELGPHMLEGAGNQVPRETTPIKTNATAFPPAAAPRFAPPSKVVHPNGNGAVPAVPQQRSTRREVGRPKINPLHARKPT

hRAD52NM = molecular target: T2, hRAD52NM (Homo sapiens, UniProt P43351 1-290); conditions: protein: recombinant; tags: C-terminal His6; chain copies: 11; label: 5'-32P; single strand
T2 sequence: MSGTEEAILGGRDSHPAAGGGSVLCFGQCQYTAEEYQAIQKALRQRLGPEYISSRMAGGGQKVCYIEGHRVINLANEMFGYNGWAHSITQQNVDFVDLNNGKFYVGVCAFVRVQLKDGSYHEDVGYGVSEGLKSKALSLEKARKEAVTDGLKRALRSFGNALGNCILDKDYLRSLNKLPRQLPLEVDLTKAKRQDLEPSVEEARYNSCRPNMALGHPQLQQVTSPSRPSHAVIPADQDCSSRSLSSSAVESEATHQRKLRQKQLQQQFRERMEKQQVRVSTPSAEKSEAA

Measured: binding result

B1: TSO252 (ssDNA)
DNA: TGGTTGAGTACTCACCAGTCACAGAAAAGCATCTTACGGATGGCATGACAGTAAGAGAATTATGCAGTGC
binds: all assays above
